Positions count from the first letter of the chain named. Names and notes keep the numbering of the source.

29 molecules from patent US20240240209A1, “SYNTHESIS OF ENANTIOPURE CIS-A-IRONE FROM A RENEWABLE CARBON SOURCE” (Agency for Science, Technology and Research, priority 2021, published 2024) can be followed below.

Experiment [1] is described as follows: Cell lysate reaction of pMT enzymes with psi-ionone, irones quantified by HS-SPME-GCMS. The conditions noted are these: AUC vs non-mutated (=1). It counts as biochemical. An outline of the steps:
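pMT1 site-saturation mutants were expressed in E. coli BL21(DE3) and lysed, and lysates were incubated 2 days at 28 °C with 0.2 mM SAM and 10 mg/L psi-ionone (plus caryophyllene) in 50 mM Tris pH 7, 10 mM MgCl2. Cis-α-irone was measured by HS-SPME-GCMS peak area and given as fold change over non-mutated enzyme.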

A short description of experiment [2]: In-vivo cis-α-irone production screening of pMT7 and pMT12 mutants. It counts as cell-based, Escherichia coli. The conditions noted are these: single mutations vs parent (pMT7 or pMT12). The text has this:
Q60 was identified as another possible mutation site.
FIGS. 24a and 24b show the in-vivo and in-vitro cis-α-irone production of other possible single mutations to pMT12. The in-vitro results in FIG. 24b validate the mutations and in-vivo results in FIG. 24a. The mutations in FIG. 24 include Q11H (SEQ ID No. 23), V12R (SEQ ID No. 24), A95C (SEQ ID No. 25), H123Q (SEQ ID No. 26), E127T (SEQ ID No. 27), M137T (SEQ ID No. 28), D176V (SEQ ID No. 29), D176Y (SEQ ID No. 30). P191S (SEQ ID No. 31), P191V (SEQ ID No. 32), F212L (SEQ ID No. 33), S268H (SEQ ID No. 34), AND T272A (SEQ ID No. 35). The screening results in FIGS. 24 and 25 are semi-quantitative to identify beneficial mutants that give greater than one-fold change of irone production as compared to pMT12.
FIGS. 25a to 25c (and Table 4) show the in-vivo testing results of other possible mutations that may be made to pMT12 to improve its in-vivo production of cis-α-irone. FIGS. 25a to 25c each include two dotted lines to account for a 10% error bar to show the normalized fold change of 0.9 and 1.1.
The four plasmids were transformed into E. coli BL21 (DE3), ΔaroA, ΔaroB, ΔaroC, ΔserC or E. coli BL21 (DE3), ΔaroA, ΔaroB, ΔaroC, ΔserC, ΔmetJ strains and plated on Agar plate containing LB media (10 g, tryptone. 5 g, yeast extract. 10 g, NaCl) supplemented with appropriate antibiotics (100 mg/L ampicillin, 34 mg/L chloramphenicol, 50 mg/L kanamycin, and 100 mg/L spectinomycin). One colony was picked and inoculate into LB media with antibiotics. 1% of overnight culture was inoculated into 1 ml fresh auto-inducing chemically defined media. The chemical media contains carbon source solution: 0.5 g/L glucose, 10 g/L glycerol; inducer: 30 mM lactose and base media: 2 g/L ammonium sulfate, 4.2 g/L KH2PO4, 11.24 g/L K2HPO4, 1.7 g/L citric acid, 0.5 g/L MgSO4, and 10 mL/L trace element solution. The trace element solution (100×) contained 0.25 g/L CoCl2·6H2O, 1.5 g/L MnSO4·4H2O, 0.15 g/L CuSO4·2H2O, 0.3 g/L H3BO3, 0.25 g/L Na2MoO4·2H2O, 0.8 g/L Zn(CH3COO)2, 5 g/L Fe(III) citrate, and 0.84 g/L ethylenediaminetetra-acetic acid (EDTA) at pH 8.0. The culture was grown at 28° C. for 3 days and the products were extracted with 1 ml hexane for GCMS analysis. An example of a fed-batch process for α-ionone Is briefly described, overnight culture was inoculated into 2 L chemical media comprising the base media and 5 g/L glucose, at 37° C. and 30% DO. pH was controlled at 7 with base solution (14% ammonia and 0.5 M NaOH). Feed media (500 g/L glucose and 5 g/L MgSO4) was added into bioreactor once OD600 reached 5, at a rate of 7.15-25.75 g/h glucose for about 4-5 h until OD600 reached ˜30-40. Subsequently, 0.1 mM IPTG was added to induce the production, and feeding rate was kept at a constant rate of 10 g/h glucose, and the temperature was reduced to 30° C. DO was adjusted to 2% or 10%. Feeding was stopped at 113 h when 2 L feeding media was finished, but the culture was further incubated for 24 h. To capture the evaporated products, the exhaust was connected to 25 ml sunflower oil.

B1: pMT1_R160V: pMT1 with R160V (protein)
chain: MPQEARTPQQQVTADEVGDWYDKFGEVYHLTLGESVHCGLWFPPDAPVPQDMELVTMSSQAQDRYTDYLIETLDPKAGQHLLDIGCGTGRTALKAARQRGIAVTGVAVSKEQIAAANRLAAGHGLTERLTFEVADAMRLPYEDESFDCAWAIESLCHMDVAKALGEAWRVLKPGGDLLVLESVVTEELTEPETALFETLYAANVPPRLGEFFDIVSGAGFHTLSLKDLSANLAMTMNVFALGVYSRRAEFTERFGAEFVDGLLAGLGSAQETLIRKTRFFMATLRKPAV
In the case of B1, in experiment [1] (pMT1_R160 mutants), the “fold change in cis-α-irone produced” value is 1.5.

B2: pMT1_E153C: pMT1 with E153C (protein)
chain: B1 chain with E153C, V160R
On to B2, for which the “fold change in cis-α-irone produced” value in experiment [1] (pMT1_E153 mutants) is reported as 0.0.

B3: pMT1_R160C: pMT1 with R160C (protein)
chain: B1 chain with V160C
Regarding B3, the “fold change in cis-α-irone produced” value in experiment [1] (pMT1_R160 mutants) is on record as 1.5.

B4: pMT1_R160Y (protein)
chain: B1 chain with V160Y
Regarding B4, the “fold change in cis-α-irone produced” value in experiment [1] (pMT1_R160 mutants) was 1.3.

B5: pMT1_M236Y: pMT1 with M236Y (protein)
chain: B1 chain with V160R, M236Y
Consider B5, for which the “fold change in cis-α-irone produced” value in experiment [1] (pMT1_M236 mutants) came to 0.0.

B6: pMT1_M236W: pMT1 with M236W (protein)
chain: B1 chain with V160R, M236W
Take B6: the “fold change in cis-α-irone produced” value in experiment [1] (pMT1_M236 mutants) stood at 0.2.

B7: pMT1_M236C: pMT1 with M236C (protein)
chain: B1 chain with V160R, M236C
With B7, in experiment [1] (pMT1_M236 mutants), the “fold change in cis-α-irone produced” value stood at 4.7.

B8: pMT1_M236E: pMT1 with M236E (protein)
chain: B1 chain with V160R, M236E
In the case of B8, in experiment [1] (pMT1_M236 mutants), the “fold change in cis-α-irone produced” value was determined as 0.9.

B9: pMT1_E153D: pMT1 with E153D (protein)
chain: B1 chain with E153D, V160R
Take B9: the “fold change in cis-α-irone produced” value in experiment [1] (pMT1_E153 mutants) is given as 0.2.

B10: pMT1_R160W: pMT1 with R160W (protein)
chain: B1 chain with V160W
As to B10, the “fold change in cis-α-irone produced” value in experiment [1] (pMT1_R160 mutants) was found to be 0.7.

B11: pMT1_R160D (protein)
chain: B1 chain with V160D
For the molecule B11, in experiment [1] (pMT1_R160 mutants), the “fold change in cis-α-irone produced” value came out at 0.0.

B12: pMT1_M236D: pMT1 with M236D (protein)
chain: B1 chain with V160R, M236D
For B12, the “fold change in cis-α-irone produced” value in experiment [1] (pMT1_M236 mutants) turned out to be 0.0.

B13: pMT1_E153A: pMT1 with E153A (protein)
chain: B1 chain with E153A, V160R
With B13, the “fold change in cis-α-irone produced” value in experiment [1] (pMT1_E153 mutants) was determined as 0.1.

B14: pMT1_R160E (protein)
chain: B1 chain with V160E
Turning to B14, the “fold change in cis-α-irone produced” value in experiment [1] (pMT1_R160 mutants) is reported as 0.0.

B15: pMT1_E153V: pMT1 with E153V (protein)
chain: B1 chain with E153V, V160R
B15: the “fold change in cis-α-irone produced” value in experiment [1] (pMT1_E153 mutants) was found to be 0.0.

B16: pMT1_M236A: pMT1 with M236A (protein)
chain: B1 chain with V160R, M236A
Regarding B16, the “fold change in cis-α-irone produced” value in experiment [1] (pMT1_M236 mutants) is reported as 0.7.

B17: pMT1_M236V (protein)
chain: B1 chain with V160R, M236V
For B17, the “fold change in cis-α-irone produced” value in experiment [1] (pMT1_M236 mutants) came to 0.7.

B18: pMT1_R160A: pMT1 with R160A (protein)
chain: B1 chain with V160A
B18: in experiment [1] (pMT1_R160 mutants), the “fold change in cis-α-irone produced” value came to 1.7.

B19: pMT1_E153Y: pMT1 with E153Y (protein)
chain: B1 chain with E153Y, V160R
B19: the “fold change in cis-α-irone produced” value in experiment [1] (pMT1_E153 mutants) worked out at 0.0.

B20: pMT1_E153W: pMT1 with E153W (protein)
chain: B1 chain with E153W, V160R
On to B20, for which, in experiment [1] (pMT1_E153 mutants), the “fold change in cis-α-irone produced” value is 0.0.

B21: Q11H (protein)
chain: MPQEARTPQQHVTADEVGDWYDKFGEVYHLTLGESVHCGLWFPPDAPVPQDMELVTMSSQAQDRFTDYLIETLDPKAGQHLLDIGCGTGRPALKAARQRGIAVTGVAVSKEQIAAANRLAAGHGLTERLTFEVADAMRLPYEDESFDCAWAIESLDHMDRAKALGEAWRVLKPGGDLLVAEEVVTEELTEPETALFETLFALNVPPRLGEFFDIVSGAGFHTLSLKDLSADLAMTMNVFALGVYSRRAEFTERFGAEFVDGLLAGLGSAQETVIRKTRFFMATLRKPAV
modifications: Modified from pMT1
On to B21, for which the “in-vivo production of cis-α-irone (in words)” value in experiment [2] was “significant increase”.

B22: pMT1_Y200D: pMT1 with Y200D (protein)
chain: B1 chain with V160R, Y200D
For the molecule B22, in experiment [1] (pMT1_Y200 mutants), the “fold change in cis-α-irone produced” value was determined as 0.0.

B23: pMT1_Y200V: pMT1 with Y200V (protein)
chain: B1 chain with V160R, Y200V
Take B23: the “fold change in cis-α-irone produced” value in experiment [1] (pMT1_Y200 mutants) was determined as 1.1.

B24: pMT1_S182T: pMT1 with S182T (protein)
chain: B1 chain with V160R, S182T
Turning to B24, the “fold change in cis-α-irone produced” value in experiment [1] (pMT1_S182 mutants) came to 0.23.

B25: pMT1_Y200C: pMT1 with Y200C (protein)
chain: B1 chain with V160R, Y200C
As to B25, the “fold change in cis-α-irone produced” value in experiment [1] (pMT1_Y200 mutants) is reported as 0.1.

B26: pMT1_Y200W: pMT1 with Y200W (protein)
chain: B1 chain with V160R, Y200W
As to B26, in experiment [1] (pMT1_Y200 mutants), the “fold change in cis-α-irone produced” value amounted to 2.1.

B27: pMT1_S182E: pMT1 with S182E (protein)
chain: B1 chain with V160R, S182E
Consider B27, for which, in experiment [1] (pMT1_S182 mutants), the “fold change in cis-α-irone produced” value came out at 0.84.

B28: pMT1_Y200E: pMT1 with Y200E (protein)
chain: B1 chain with V160R, Y200E
Regarding B28, the “fold change in cis-α-irone produced” value in experiment [1] (pMT1_Y200 mutants) was found to be 0.0.

B29: pMT1_Y200A: pMT1 with Y200A (protein)
chain: B1 chain with V160R, Y200A
With B29, in experiment [1] (pMT1_Y200 mutants), the “fold change in cis-α-irone produced” value turned out to be 0.2.
